B1: IKZF1 (parent)
chain: YHSQDRYEFSSHITRGEHRFHMS

Variants of: B1
Experiment: protein stability index of a GFP-peptide fusion (GPS, HEK-293T) (PSI 1-6); higher = more stable
Conditions: c terminus: native
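Note: lentivirally expressed fusions sorted by FACS into six bins by GFP to DsRed ratio, PSI derived from sequencing read proportions per bin multiplied by bin number.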

Variant	protein stability index
YHSQDRYEKSSHITRGEHRFHMS [F9K]	2.05
YHSQDRYEWSSHITRGEHRFHMS [F9W]	3.1
YHSQDRYEHSSHITRGEHRFHMS [F9H]	2.04
YHSQDRYEISSHITRGEHRFHMS [F9I]	2.03
YHSQDRYEMSSHITRGEHRFHMS [F9M]	2.44
YHSQDRYESSSHITRGEHRFHMS [F9S]	3.12
YHSQDRYEFSSHITRGEHRFHMY [S23Y]	2.42
YHSQDRYEFSSHITRGEHRFHMP [S23P]	2
YHSQDRYEFSSHITRGEHRFHMK [S23K]	2.28
YHSQDRYEFSSHITRGEHRFHMF [S23F]	2.01
YHSQDRYEFSSHITRGEHRFHMA [S23A]	1.8
YHSQDRYEFSSHITRGEHRFHMN [S23N]	2.08
YHSQDRYEFSSHITRGEHRFHMI [S23I]	2.18
YHSQDKYEFSSHITRGEHRFHMS [R6K]	2.64
YHSQDTYEFSSHITRGEHRFHMS [R6T]	1.8
YHSQDCYEFSSHITRGEHRFHMS [R6C]	2.84
YHSQDEYEFSSHITRGEHRFHMS [R6E]	2.29
YHSQDDYEFSSHITRGEHRFHMS [R6D]	2.49
YHSQDVYEFSSHITRGEHRFHMS [R6V]	2.07
YHSQDQYEFSSHITRGEHRFHMS [R6Q]	1.9
YHSQDFYEFSSHITRGEHRFHMS [R6F]	3.44
YHSQDRYEFSSHITRGEHRFKMS [H21K]	1.37
YHSQDRYEFSSHITRGEHRFYMS [H21Y]	1.76
YHSQDRYEFSSHITRGEHRFMMS [H21M]	1.6
YHSQDRYEFSSHITRGEHRFIMS [H21I]	3.07

Variant	protein stability index
YHSQDRYEFSSHITRGEHRFDMS [H21D]	2.15
YHSQDRYEFSSHITRGEHRFVMS [H21V]	2.25
YHSQDRYEFSSHITRGEHRFAMS [H21A]	2.43
YHSQDRYEFSSHITRGEHRFEMS [H21E]	1.44
YHSQDRYEFSSHITRGEHRFPMS [H21P]	1.89
YHSQDRYEFSSHITRGEHRFFMS [H21F]	1.98
YHSQDRYEFSSHITRGEHRFSMS [H21S]	1.89
YHSQDRYEFSSHITRGEHRFWMS [H21W]	1.81
YHSQDRYEFSSHITRGEHRFGMS [H21G]	2.11
YHSQDRYEFSSHCTRGEHRFHMS [I13C]	2.08
YHSQDRYEFSSHKTRGEHRFHMS [I13K]	1.82
YHSQDRYEFSSHLTRGEHRFHMS [I13L]	2.52
YHSQDRYEFSSHDTRGEHRFHMS [I13D]	1.52
YHSQDRYEFSSHGTRGEHRFHMS [I13G]	2.7
YHSQDRYEFSSHITRGEHRFHQS [M22Q]	2.11
YHSQDRYEFSSHITRGEHRFHSS [M22S]	2.03
YHSQDRYEFSSHITRGEHRFHRS [M22R]	1.99
YHSQDRYEFSSHITRGEHRFHKS [M22K]	1.46
YHMQDRYEFSSHITRGEHRFHMS [S3M]	1.95
YHHQDRYEFSSHITRGEHRFHMS [S3H]	2.14
YHYQDRYEFSSHITRGEHRFHMS [S3Y]	1.63
YHDQDRYEFSSHITRGEHRFHMS [S3D]	2.76
YHWQDRYEFSSHITRGEHRFHMS [S3W]	2.61
YHFQDRYEFSSHITRGEHRFHMS [S3F]	1.76
YHLQDRYEFSSHITRGEHRFHMS [S3L]	2.39

Variant	protein stability index
LHSQDRYEFSSHITRGEHRFHMS [Y1L]	3.37
MHSQDRYEFSSHITRGEHRFHMS [Y1M]	3.5
DHSQDRYEFSSHITRGEHRFHMS [Y1D]	4.05
WHSQDRYEFSSHITRGEHRFHMS [Y1W]	2.94
CHSQDRYEFSSHITRGEHRFHMS [Y1C]	3.03
FHSQDRYEFSSHITRGEHRFHMS [Y1F]	1.73
IHSQDRYEFSSHITRGEHRFHMS [Y1I]	3.35
SHSQDRYEFSSHITRGEHRFHMS [Y1S]	4.05
KHSQDRYEFSSHITRGEHRFHMS [Y1K]	2.12
AHSQDRYEFSSHITRGEHRFHMS [Y1A]	3.73
GHSQDRYEFSSHITRGEHRFHMS [Y1G]	3.97
YHSQDRYEFSSHITSGEHRFHMS [R15S]	1.55
YHSQDRYEFSSHITQGEHRFHMS [R15Q]	2.22
YHSQDRYEFSSHITGGEHRFHMS [R15G]	1.87
YHSQDRYEFSSHITHGEHRFHMS [R15H]	1.73
YHSQDRYEFSSHITCGEHRFHMS [R15C]	2.69
YHSQDRYEFSSHITLGEHRFHMS [R15L]	2.12
YHSQDRYEFSSHITKGEHRFHMS [R15K]	1.8
YHSQDRYEFSSHITFGEHRFHMS [R15F]	2.34
YHSQDRYEFSSLITRGEHRFHMS [H12L]	2.06
YHSQDRYEFSSMITRGEHRFHMS [H12M]	2.74
YHSQDRYEFSSPITRGEHRFHMS [H12P]	2.27
YHSQDRYEFSSSITRGEHRFHMS [H12S]	3.03
YHSQDRYEFSSNITRGEHRFHMS [H12N]	2.67
YHSQDRYEFSSAITRGEHRFHMS [H12A]	1.71

Variant	protein stability index
YHSQDRYEFSSVITRGEHRFHMS [H12V]	2.49
YHSQDRYEFSSCITRGEHRFHMS [H12C]	2.66
YHSQDRYEFSSKITRGEHRFHMS [H12K]	2.31
YHSQDRYEFSSRITRGEHRFHMS [H12R]	2.79
YHSQDRYEFSSIITRGEHRFHMS [H12I]	1.92
YHSQDRYEFSSHITRGEHSFHMS [R19S]	1.99
YHSQDRYEFSSHITRGEHCFHMS [R19C]	3.13
YHSQDRYEFSSHITRGEHNFHMS [R19N]	2.27
YHSQDRYEFSSHITRGEHTFHMS [R19T]	1.92
YHSQDRYEFSSHITRGEHHFHMS [R19H]	1.3
YHSQDRYEFSSHITRGEHPFHMS [R19P]	1.77
YHSQDRYEFSSHITRGEHEFHMS [R19E]	3.06
YHSQDRYEFSSHITRGEHLFHMS [R19L]	2.54
YHSQDRYEFSSHITRGEHDFHMS [R19D]	1.93
YHSQDRYEFQSHITRGEHRFHMS [S10Q]	2.08
YHSQDRYEFPSHITRGEHRFHMS [S10P]	2.08
YHSQDRYEFGSHITRGEHRFHMS [S10G]	1.92
YHSQDRYEFKSHITRGEHRFHMS [S10K]	1.27
YHSQDRYEFDSHITRGEHRFHMS [S10D]	1.74
YHSQDRYEFESHITRGEHRFHMS [S10E]	1.74
YHSQDRYEFHSHITRGEHRFHMS [S10H]	1.84
YHSQDRYEFVSHITRGEHRFHMS [S10V]	1.95

— the supplement of paper PMC10567573
